From patent US20220017591A1 (AstraZeneca / MedImmune, published 2022)
Numbering of substitutions follows the chain as printed.

T1: human RXFP1 (human, UniProt Q9HBX9 1-757)
T1 sequence (looked up): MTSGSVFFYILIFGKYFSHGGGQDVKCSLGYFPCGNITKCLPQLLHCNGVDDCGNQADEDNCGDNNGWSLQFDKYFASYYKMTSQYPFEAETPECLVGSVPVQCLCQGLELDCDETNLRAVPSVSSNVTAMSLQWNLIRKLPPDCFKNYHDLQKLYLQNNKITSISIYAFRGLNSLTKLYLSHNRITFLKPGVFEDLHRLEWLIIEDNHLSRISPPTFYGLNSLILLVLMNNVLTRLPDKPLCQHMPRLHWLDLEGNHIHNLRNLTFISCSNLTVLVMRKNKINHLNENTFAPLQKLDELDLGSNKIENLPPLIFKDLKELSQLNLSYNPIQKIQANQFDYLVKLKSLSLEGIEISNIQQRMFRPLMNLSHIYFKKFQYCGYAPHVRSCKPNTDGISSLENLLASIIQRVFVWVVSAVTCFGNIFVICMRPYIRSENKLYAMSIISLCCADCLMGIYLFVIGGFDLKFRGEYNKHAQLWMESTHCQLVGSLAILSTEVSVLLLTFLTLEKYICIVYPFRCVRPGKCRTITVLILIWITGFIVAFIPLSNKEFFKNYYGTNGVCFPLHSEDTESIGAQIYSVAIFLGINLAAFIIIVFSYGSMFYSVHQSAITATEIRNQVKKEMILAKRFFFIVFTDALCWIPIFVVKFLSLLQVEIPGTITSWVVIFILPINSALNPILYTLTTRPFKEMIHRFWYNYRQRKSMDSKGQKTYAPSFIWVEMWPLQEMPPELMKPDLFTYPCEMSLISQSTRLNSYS

T2: mouse RXFP1 (mouse, UniProt Q6R6I7 1-758)
T2 sequence (looked up): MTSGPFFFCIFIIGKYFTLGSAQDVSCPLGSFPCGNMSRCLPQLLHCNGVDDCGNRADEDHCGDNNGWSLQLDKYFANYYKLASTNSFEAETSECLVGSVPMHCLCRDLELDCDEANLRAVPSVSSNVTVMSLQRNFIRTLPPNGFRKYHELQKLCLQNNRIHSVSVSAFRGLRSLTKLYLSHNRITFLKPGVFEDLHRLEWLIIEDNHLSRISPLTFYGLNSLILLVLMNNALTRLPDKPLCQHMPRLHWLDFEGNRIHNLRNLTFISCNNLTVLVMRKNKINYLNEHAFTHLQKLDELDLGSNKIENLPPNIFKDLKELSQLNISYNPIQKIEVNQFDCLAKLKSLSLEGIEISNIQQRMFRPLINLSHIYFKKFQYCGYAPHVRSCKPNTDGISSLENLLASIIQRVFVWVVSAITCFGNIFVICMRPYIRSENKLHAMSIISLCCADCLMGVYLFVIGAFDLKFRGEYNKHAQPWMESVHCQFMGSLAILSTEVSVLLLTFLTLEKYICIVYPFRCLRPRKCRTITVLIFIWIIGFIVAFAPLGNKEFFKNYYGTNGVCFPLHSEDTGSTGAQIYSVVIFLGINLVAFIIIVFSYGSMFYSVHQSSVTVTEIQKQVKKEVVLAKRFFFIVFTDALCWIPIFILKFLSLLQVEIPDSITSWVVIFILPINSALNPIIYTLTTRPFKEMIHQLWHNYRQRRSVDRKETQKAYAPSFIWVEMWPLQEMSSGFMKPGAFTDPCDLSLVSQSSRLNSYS

B1: RELAX0110 (Fc fusion)
chain 1: DKTHTCPPCPAPEFEGGPSVFLFPPKPKDTLMISRTPEVTCVVVDVSHEDPEVKFNWYVDGVEVHNAKTKPREEQYNSTYRVVSVLTVLHQDWLNGKEYKCKVSNKALPASIEKTISKAKGQPREPQVYTLPPCREEMTKNQVSLWCLVKGFYPSDIAVEWESNGQPENNYKTTPPVLDSDGSFFLYSKLTVDKSRWQQGNVFSCSVMHEALHNHYTQKSLSLSPGGGGGSGGGGGSQLYSALANKCCHVGCTKRSLARFC
chain 2: DKTHTCPPCPAPEFEGGPSVFLFPPKPKDTLMISRTPEVTCVVVDVSHEDPEVKFNWYVDGVEVHNAKTKPREEQYNSTYRVVSVLTVLHQDWLNGKEYKCKVSNKALPASIEKTISKAKGQPREPQVYTLPPCREEMTKNQVSLWCLVKGFYPSDIAVEWESNGQPENNYKTTPPVLDSDGSFFLYSKLTVDKSRWQQGNVFSCSVMHEALHNHYTQKSLSLSPGAAPAPAPAPAPAPAGSSWMEEVIKLCGRELVRAQIAICGMSTWS
B2: RELAX0111 (Fc fusion)
chain 1: DKTHTCPPCPAPEFEGGPSVFLFPPKPKDTLMISRTPEVTCVVVDVSHEDPEVKFNWYVDGVEVHNAKTKPREEQYNSTYRVVSVLTVLHQDWLNGKEYKCKVSNKALPASIEKTISKAKGQPREPQVYTLPPCREEMTKNQVSLWCLVKGFYPSDIAVEWESNGQPENNYKTTPPVLDSDGSFFLYSKLTVDKSRWQQGNVFSCSVMHEALHNHYTQKSLSLSPGGGGGGSQLYSALANKCCHVGCTKRSLARFC
chain 2: B1 chain 2
B3: RELAX0105 (Fc fusion)
chain 1: DKTHTCPPCPAPEFEGGPSVFLFPPKPKDTLMISRTPEVTCVVVDVSHEDPEVKFNWYVDGVEVHNAKTKPREEQYNSTYRVVSVLTVLHQDWLNGKEYKCKVSNKALPASIEKTISKAKGQPREPQVYTLPPCREEMTKNQVSLWCLVKGFYPSDIAVEWESNGQPENNYKTTPPVLDSDGSFFLYSKLTVDKSRWQQGNVFSCSVMHEALHNHYTQKSLSLSPGGGGGSGGGGSGGGGGSQLYSALANKCCHVGCTKRSLARFC
chain 2: DKTHTCPPCPAPEFEGGPSVFLFPPKPKDTLMISRTPEVTCVVVDVSHEDPEVKFNWYVDGVEVHNAKTKPREEQYNSTYRVVSVLTVLHQDWLNGKEYKCKVSNKALPASIEKTISKAKGQPREPQVCTLPPSREEMTKNQVSLSCAVKGFYPSDIAVEWESNGQPENNYKTTPPVLDSDGSFFLVSKLTVDKSRWQQGNVFSCSVMHEALHNHYTQKSLSLSPGAPAPAPAPAPAPAPAPAPAGSSWMEEVIKLCGRELVRAQIAICGMSTWS
B4: RELAX0106 (Fc fusion)
chain 1: B1 chain 1
chain 2: B3 chain 2
B5: RELAX0107 (Fc fusion)
chain 1: B2 chain 1
chain 2: B3 chain 2
B6: RELAX0039 (Fc fusion)
chain 1: DKTHTACPPCPAPEFEGGPSVFLFPPKPKDTLMISRTPEVTCVVVDVSHEDPEVKFNWYVDGVEVHNAKTKPREEQYNSTYRVVSVLTVLHQDWLNGKEYKCKVSNKALPASIEKTISKAKGQPREPQVYTLPPCREEMTKNQVSLWCLVKGFYPSDIAVEWESNGQPENNYKTTPPVLDSDGSFFLYSKLTVDKSRWQQGNVFSCSVMHEALHNHYTQKSLSLSPGGGGGSGGGGSGGGGSGGGGGSQLYSALANMCCHVGCTKRSLARFC
chain 2: DKTHTCPPCPAPEFEGGPSVFLFPPKPKDTLMISRTPEVTCVVVDVSHEDPEVKFNWYVDGVEVHNAKTKPREEQYNSTYRVVSVLTVLHQDWLNGKEYKCKVSNKALPASIEKTISKAKGQPREPQVCTLPPSREEMTKNQVSLSCAVKGFYPSDIAVEWESNGQPENNYKTTPPVLDSDGSFFLVSKLTVDKSRWQQGNVFSCSVMHEALHNHYTQKSLSLSPGGGGGSGGGGSGGGGSGGGGGSSWMEEVIKLCGRELVRAQIAICGMSTWS
B7: RELAX0052 (Fc fusion)
chain 1: B6 chain 1 with M257K, R266E
chain 2: B6 chain 2
B8: RELAX0053 (Fc fusion)
chain 1: B6 chain 1 with M257K, R266H
chain 2: B6 chain 2
B9: RELAX0043 (Fc fusion)
chain 1: B6 chain 1 with M257E
chain 2: B6 chain 2
B10: RELAX0063 (Fc fusion)
chain 1: DKTHTCPPCPAPEFEGGPSVFLFPPKPKDTLMISRTPEVTCVVVDVSHEDPEVKFNWYVDGVEVHNAKTKPREEQYNSTYRVVSVLTVLHQDWLNGKEYKCKVSNKALPASIEKTISKAKGQPREPQVYTLPPCREEMTKNQVSLWCLVKGFYPSDIAVEWESNGQPENNYKTTPPVLDSDGSFFLYSKLTVDKSRWQQGNVFSCSVMHEALHNHYTQKSLSLSPGGGGGSGGGGSGGGGSGGGGGSQLYSALANKCCHVGCTKRSLARAC
chain 2: B6 chain 2
B11: RELAX0041 (Fc fusion)
chain 1: B6 chain 1 with M257H
chain 2: B6 chain 2
B12: RELAX0040 (Fc fusion)
chain 1: B6 chain 1 with M257L
chain 2: B6 chain 2

Each binder was assayed against T1, human RXFP1 (assay: cell-based or functional assay).

Row | Binder | EC50 hRXFP1 (M), cAMP assay [M]
1 | B1 | 1.88e-09
2 | B2 | 1.93e-09
3 | B3 | 7.12e-11
4 | B4 | 6.96e-11
5 | B5 | 8.09e-11

The binders below were run against T3, human RXFP2 (human, UniProt Q8WXD0 1-754) (assay: cell-based or functional assay).
T3 sequence (Q8WXD0 whole entry): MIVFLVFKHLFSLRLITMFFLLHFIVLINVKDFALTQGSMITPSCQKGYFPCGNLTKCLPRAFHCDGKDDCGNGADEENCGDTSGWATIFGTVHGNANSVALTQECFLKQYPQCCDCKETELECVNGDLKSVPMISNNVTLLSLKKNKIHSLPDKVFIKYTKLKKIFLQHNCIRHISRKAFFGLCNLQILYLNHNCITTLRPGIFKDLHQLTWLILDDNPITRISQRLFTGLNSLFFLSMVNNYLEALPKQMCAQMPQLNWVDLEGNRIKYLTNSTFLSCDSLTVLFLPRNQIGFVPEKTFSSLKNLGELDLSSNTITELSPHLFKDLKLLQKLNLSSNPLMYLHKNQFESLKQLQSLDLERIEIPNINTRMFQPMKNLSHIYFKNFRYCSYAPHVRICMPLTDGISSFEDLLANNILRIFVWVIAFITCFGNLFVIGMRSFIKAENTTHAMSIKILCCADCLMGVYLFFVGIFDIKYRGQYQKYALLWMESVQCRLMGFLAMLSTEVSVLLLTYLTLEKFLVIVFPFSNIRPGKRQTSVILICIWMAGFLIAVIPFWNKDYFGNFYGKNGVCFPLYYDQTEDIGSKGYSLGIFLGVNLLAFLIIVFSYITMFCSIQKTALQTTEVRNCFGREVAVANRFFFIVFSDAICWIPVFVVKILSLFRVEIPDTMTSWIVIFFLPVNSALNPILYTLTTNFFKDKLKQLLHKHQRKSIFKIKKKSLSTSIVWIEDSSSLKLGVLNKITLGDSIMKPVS

Row | Binder | EC50 hRXFP2 (M), cAMP assay [M]
6 | B1 | > 6.07e-08
7 | B2 | > 6.06e-08
8 | B3 | 3.33e-08
9 | B4 | 4.94e-08
10 | B5 | 1.22e-07

Each binder was assayed against T2, mouse RXFP1 (assay: cell-based or functional assay).

Row | Binder | EC50 mRXFP1 (M), cAMP assay [M]
11 | B1 | 1.11e-09
12 | B2 | 1.24e-09
13 | B3 | 1.49e-11
14 | B4 | 1.98e-11
15 | B5 | 3.87e-11

Molecular target: T1, human RXFP1
Assay: cell-based or functional assay
Remark: another data set of the same source

Row | Binder | EC50 hRXFP1 (M), cAMP assay [M]
16 | B6 | 6.54e-11
17 | B7 | 9.67e-11
18 | B8 | 7.15e-11
19 | B9 | 7.98e-11
20 | B10 | 1.96e-10
21 | B11 | 6.22e-11
22 | B12 | 5.92e-11

Molecular target: T3, human RXFP2
Assay: cell-based or functional assay
Remark: another data set of the same source

Row | Binder | EC50 hRXFP2 (M), cAMP assay [M]
23 | B6 | 1.08e-07
24 | B7 | 1.05e-07
25 | B8 | > 1.79e-07
26 | B9 | > 1.58e-07
27 | B10 | > 1.38e-07
28 | B11 | 1.18e-07
29 | B12 | > 1.27e-07

Molecular target: T2, mouse RXFP1
Assay: cell-based or functional assay
Remark: another data set of the same source

Row | Binder | EC50 mRXFP1 (M), cAMP assay [M]
30 | B6 | 4.25e-11
31 | B7 | 5.69e-11
32 | B8 | 4.36e-11
33 | B9 | 5.58e-11
34 | B10 | 4.46e-11
35 | B11 | 3.17e-11
36 | B12 | 2.92e-11
